Measurements as given in paper PMC5597967, “14-3-3 Regulates Actin Filament Formation in the Deep-Branching Eukaryote Giardia lamblia” (mSphere, 2017).

Target: the molecule itself
Test: native gel or EMSA; TS-actin and associated proteins purified on StrepTactin resin, eluted with 2 mM biotin, run at once on 4 to 16% native PAGE and blotted; with and without DSP cross-linking of cells before lysis; input also run

B1: Gl-14-3-3–HA (endogenously 3×HA C-terminally tagged Gl-14-3-3) (natural protein, Giardia lamblia, UniProt E2RU97 1-248, looked up)
chain: MAEAFTREDYVFMAQLNENAERYDEMVETMRKISGMEGELSDKERNLLSVAYKNVIGPRRAAWRIVSSIEAKEKGRQKPNAKRIEQIRVYRQKIEKELSDICNDILKLLQEQFVPRSTNADAKVFYYKMQGDYYRYLAEYSSGEDKEKIAGSALNAYNSAFEISQQLPPTHPIRLGLALNFSVFYYEILASPDRACELARKAFDAAITDLDKLTEESYKDSTLIMQLLRDNLNLWVTDSAGDDNAEEK
notes: Giardia lamblia 14-3-3 (Gl-14-3-3), the single 14-3-3 homolog, GL50803_6430; source: Giardia trophozoites, endogenously tagged (integrated copy), in lysate; not shown: 3xHA, C-terminal, kept
stoichiometry N: 2
